Results from the supplement of paper PMC10567573.

B1: PBXIP1 (parent)
chain: FGEDGIFRHDRLRFRDFVDALEDS

Variants of: B1
Assay: protein stability index of a GFP-peptide fusion (GPS, HEK-293T) (PSI 1-6); higher = more stable
Settings: c terminus: a fixed tail appended
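Further: lentivirally expressed fusions sorted by FACS into six bins by GFP to DsRed ratio, PSI derived from sequencing read proportions per bin multiplied by bin number.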

Variant | protein stability index
FGEDGIFRHDRLRFRTFVDALEDS | 2.08
FGEDGIFRHDRLRFRGFVDALEDS | 1.97
FGEDGIFRHDRLRFRNFVDALEDS | 1.89
FGEDGIFRHDRLRFRSFVDALEDS | 2.23
FGEDGIFRHDRLRFRAFVDALEDS | 2.41
FGEDGIFRHDRLRFRWFVDALEDS | 1.85
FGEDGIFRHDRLRFRFFVDALEDS | 2.12
FGEDGIFRHDRLRFRYFVDALEDS | 1.88
FGEDGIFRHDRLRFRHFVDALEDS | 2.09
FGEDGIFRHDRLRFRLFVDALEDS | 1.55
FGEDGIFRHDRLRFRPFVDALEDS | 2.27
FGEDGIFRHDRLRFRIFVDALEDS | 2.06
FGEDGIFRHDRLRFRMFVDALEDS | 1.78
FGEDGIFRHDRLRFRKFVDALEDS | 1.99
FGEDGIFRHDRLRFRVFVDALEDS | 2.43
FGEDGIFRHDRLRFRRFVDALEDS | 2.36
FGEDGIFRHDRLRFRQFVDALEDS | 2.42
FGEDGIFRHDRLRFREFVDALEDS | 3.17
FGEDGIFRHDRLRFRCFVDALEDS | 3.01
FGEDGIFRHDRLRNRDFVDALEDS | 3.71
FGEDGIFRHDRLRTRDFVDALEDS | 3.62
FGEDGIFRHDRLRVRDFVDALEDS | 3.05
FGEDGIFRHDRLRHRDFVDALEDS | 2.87
FGEDGIFRHDRLRCRDFVDALEDS | 1.99

Variant | protein stability index
FGEDGIFRHDRLRDRDFVDALEDS | 3.84
FGEDGIFRHDRLRGRDFVDALEDS | 3.67
FGEDGIFRHDRLRWRDFVDALEDS | 2.2
FGEDGIFRHDRLRQRDFVDALEDS | 3.46
FGEDGIFRHDRLRPRDFVDALEDS | 3.01
FGEDGIFRHDRLRKRDFVDALEDS | 3.38
FGEDGIFRHDRLRARDFVDALEDS | 3.43
FGEDGIFRHDRLRRRDFVDALEDS | 3.37
FGEDGIFRHDRLRLRDFVDALEDS | 2.96
FGEDGIFRHDRLRIRDFVDALEDS | 2.86
FGEDGIFRHDRLRMRDFVDALEDS | 3.23
FGEDGIFRHDRLRYRDFVDALEDS | 2.57
FGEDGIFRHDRLRSRDFVDALEDS | 3.81
FGEDGIFRHDRLRERDFVDALEDS | 3.86
FGEDGIFRHDRLRFRDFSDALEDS | 3.11
FGEDGIFRHDRLRFRDFRDALEDS | 3.05
FGEDGIFRHDRLRFRDFKDALEDS | 3.13
FGEDGIFRHDRLRFRDFMDALEDS | 2.87
FGEDGIFRHDRLRFRDFHDALEDS | 2.53
FGEDGIFRHDRLRFRDFNDALEDS | 3.14
FGEDGIFRHDRLRFRDFCDALEDS | 3.3
FGEDGIFRHDRLRFRDFQDALEDS | 3.49
FGEDGIFRHDRLRFRDFYDALEDS | 2.4
FGEDGIFRHDRLRFRDFGDALEDS | 3.16

Variant | protein stability index
FGEDGIFRHDRLRFRDFFDALEDS | 2.45
FGEDGIFRHDRLRFRDFIDALEDS | 2.17
FGEDGIFRHDRLRFRDFPDALEDS | 2.94
FGEDGIFRHDRLRFRDFWDALEDS | 2.07
FGEDGIFRHDRLRFRDFEDALEDS | 3.5
FGEDGIFRHDRLRFRDFLDALEDS | 3.32
FGEDGIFRHDRLRFRDFDDALEDS | 3.1
FGEDGIFRHDRLRFRDFADALEDS | 2.73
FGEDGIFRHDRLRFRDFTDALEDS | 3.27
FGEDGIFRHDRLRFRDFVDDLEDS | 3.23
FGEDGIFRHDRLRFRDFVDCLEDS | 3.05
FGEDGIFRHDRLRFNDFVDALEDS | 3.38
FGEDGIFRHDRLRFTDFVDALEDS | 2.44
FGEDGIFRHDRLRFADFVDALEDS | 2.38
FGEDGIFRHDRLRFPDFVDALEDS | 3.36
FGEDGIFRHDRLRFIDFVDALEDS | 2.23
FGEDGIFRHDRLRFMDFVDALEDS | 2.54
FGEDGIFRHDRLRFDDFVDALEDS | 2.87
FGEDGIFRHDRLRFGDFVDALEDS | 3.41
FGEDGIFRHDRLRFSDFVDALEDS | 2.54
FGEDGIFRHDRLRFCDFVDALEDS | 2.79
FGEDGIFRHDRLRFHDFVDALEDS | 2.48
FGEDGIFRHDRLRFKDFVDALEDS | 2.9
FGEDGIFRHDRLRFQDFVDALEDS | 3.06

Variant | protein stability index
FGEDGIFRHDRLRFWDFVDALEDS | 1.97
FGEDGIFRHDRLRFFDFVDALEDS | 2.68
FGEDGIFRHDRLRFEDFVDALEDS | 3.61
FGEDGIFRHDRLRFVDFVDALEDS | 2.02
FGEDGIFRHDRLRFLDFVDALEDS | 2.48
FGEDGIFRHDRLRFYDFVDALEDS | 2.22
FGEDGIFRHDMLRFRDFVDALEDS | 2.44
FGEDGIFRHDGLRFRDFVDALEDS | 3.12
FGEDGIFRHDELRFRDFVDALEDS | 3.36
FGEDGIFRHDSLRFRDFVDALEDS | 2.73
FGEDGIFRHDNLRFRDFVDALEDS | 3.09
FGEDGIFRHDALRFRDFVDALEDS | 2.57
FGEDGIFRHDPLRFRDFVDALEDS | 3.13
FGEDGIFRHDILRFRDFVDALEDS | 2.43
FGEDGIFRHDHLRFRDFVDALEDS | 2.83
FGEDGIFRHDWLRFRDFVDALEDS | 2.49
FGEDGIFRHDFLRFRDFVDALEDS | 2.5
FGEDGIFRHDDLRFRDFVDALEDS | 3.95
FGEDGIFRHDYLRFRDFVDALEDS | 2.35
FGEDGIFRHDQLRFRDFVDALEDS | 3.29
FGEDGIFRHDTLRFRDFVDALEDS | 3.02
FGEDGIFRHDVLRFRDFVDALEDS | 2.46
FGEDGIFRHDKLRFRDFVDALEDS | 2.57
FGEDGIFRHDLLRFRDFVDALEDS | 2.33

Variant | protein stability index
FGEDGIFRHDCLRFRDFVDALEDS | 2.73
FGEDGIFRHDRLRFRDNVDALEDS | 3.55
FGEDGIFRHDRLRFRDYVDALEDS | 2.97
FGEDGIFRHDRLRFRDCVDALEDS | 3.12
FGEDGIFRHDRLRFRDQVDALEDS | 3.58
FGEDGIFRHDRLRFRDSVDALEDS | 3.69
FGEDGIFRHDRLRFRDMVDALEDS | 3.38
FGEDGIFRHDRLRFRDPVDALEDS | 3.44
FGEDGIFRHDRLRFRDKVDALEDS | 3.09
FGEDGIFRHDRLRFRDTVDALEDS | 3.61
FGEDGIFRHDRLRFRDAVDALEDS | 3.46
FGEDGIFRHDRLRFRDRVDALEDS | 3.69
FGEDGIFRHDRLRFRDVVDALEDS | 3.38
FGEDGIFRHDRLRFRDGVDALEDS | 3.57
FGEDGIFRHDRLRFRDDVDALEDS | 3.68
FGEDGIFRHDRLRFRDLVDALEDS | 2.77
FGEDGIFRHDRLRFRDHVDALEDS | 3.25
FGEDGIFRHDRLRFRDEVDALEDS | 3.98
FGEDGIFRHDRLRFRDWVDALEDS | 2.79
FGEDGIFRHDRLRFRDIVDALEDS | 3.19
FGEDGIFRHGRLRFRDFVDALEDS | 2.33
FGEDGIFRHHRLRFRDFVDALEDS | 2.39
FGEDGIFRHKRLRFRDFVDALEDS | 2.04
FGEDGIFRHSRLRFRDFVDALEDS | 2.06

Variant | protein stability index
FGEDGIFRHTRLRFRDFVDALEDS | 2.07
FGEDGIFRHVRLRFRDFVDALEDS | 1.52
FGEDGIFRHYRLRFRDFVDALEDS | 1.79
FGEDGIFRHPRLRFRDFVDALEDS | 1.85
FGEDGIFRHIRLRFRDFVDALEDS | 1.67
FGEDGIFRHRRLRFRDFVDALEDS | 2.15
FGEDGIFRHLRLRFRDFVDALEDS | 2.16
FGEDGIFRHMRLRFRDFVDALEDS | 2.19
FGEDGIFRHNRLRFRDFVDALEDS | 2.83
FGEDGIFRHWRLRFRDFVDALEDS | 1.74
FGEDGIFRHQRLRFRDFVDALEDS | 1.86
FGEDGIFRHDRLRFRDFVTALEDS | 2.61
FGEDGIFRHDRLRFRDFVWALEDS | 2.18
FGEDGIFRHDRLRFRDFVYALEDS | 2.35
FGEDGIFRHDRLRFRDFVCALEDS | 2.47
FGEDGIFRHDRLRFRDFVFALEDS | 2.22
FGEDGIFRHDRLRFRDFVAALEDS | 2.59
FGEDGIFRHDRLRFRDFVVALEDS | 1.91
FGEDGIFRHDRLRFRDFVMALEDS | 2.56
FGEDGIFRHDRLRFRDFVNALEDS | 2.65
FGEDGIFRHDRLRFRDFVKALEDS | 2.9
FGEDGIFRHDRLRFRDFVRALEDS | 2.48
FGEDGIFRHDRLRFRDFVGALEDS | 2.37
FGEDGIFRHDRLRFRDFVEALEDS | 2.6

Variant | protein stability index
FGEDGIFRHDRLRFRDFVSALEDS | 2.4
FGEDGIFRHDRLRFRDFVIALEDS | 1.91
FGEDGIFRHDRLRFRDFVLALEDS | 1.61
FGEDGIFRHDRLRFRDFVHALEDS | 2.9
FGEDGIFRHDRLRFRDFVPALEDS | 2.53
FGEDGIFRHDRLRFRDFVQALEDS | 2.49
FGEDGIFRHDRERFRDFVDALEDS | 3.51
FGEDGIFRHDRQRFRDFVDALEDS | 3.17
FGEDGIFRHDRFRFRDFVDALEDS | 2.56
FGEDGIFRHDRNRFRDFVDALEDS | 3.14
FGEDGIFRHDRMRFRDFVDALEDS | 2.51
FGEDGIFRHDRARFRDFVDALEDS | 2.88
FGEDGIFRHDRRRFRDFVDALEDS | 2.58
FGEDGIFRHDRDRFRDFVDALEDS | 3.38
FGEDGIFRHDRHRFRDFVDALEDS | 2.73
FGEDGIFRHDRGRFRDFVDALEDS | 3.31
FGEDGIFRHDRVRFRDFVDALEDS | 2.65
FGEDGIFRHDRCRFRDFVDALEDS | 2.74
FGEDGIFRHDRWRFRDFVDALEDS | 2.7
FGEDGIFRHDRIRFRDFVDALEDS | 3.05
FGEDGIFRHDRSRFRDFVDALEDS | 2.55
FGEDGIFRHDRTRFRDFVDALEDS | 2.44
FGEDGIFRHDRYRFRDFVDALEDS | 2.71
FGEDGIFRHDRPRFRDFVDALEDS | 2.43

Variant | protein stability index
FGEDGIFRHDRKRFRDFVDALEDS | 2.46
FGEDGIFRHDRLGFRDFVDALEDS | 2.9
FGEDGIFRHDRLWFRDFVDALEDS | 1.99
FGEDGIFRHDRLKFRDFVDALEDS | 2.85
FGEDGIFRHDRLDFRDFVDALEDS | 3.29
FGEDGIFRHDRLSFRDFVDALEDS | 2.92
FGEDGIFRHDRLMFRDFVDALEDS | 2.79
FGEDGIFRHDRLTFRDFVDALEDS | 3.26
FGEDGIFRHDRLHFRDFVDALEDS | 2.57
FGEDGIFRHDRLYFRDFVDALEDS | 2.32
FGEDGIFRHDRLLFRDFVDALEDS | 2.71
FGEDGIFRHDRLQFRDFVDALEDS | 3.74
FGEDGIFRHDRLNFRDFVDALEDS | 3.56
FGEDGIFRHDRLCFRDFVDALEDS | 2.73
FGEDGIFRHDRLFFRDFVDALEDS | 2.25
FGEDGIFRHDRLEFRDFVDALEDS | 4.02
FGEDGIFRHDRLPFRDFVDALEDS | 3.35
FGEDGIFRHDRLVFRDFVDALEDS | 2.72
FGEDGIFRHDRLIFRDFVDALEDS | 2.26
FGEDGIFRHDRLAFRDFVDALEDS | 3.13
